This data set addresses Soluble rat tail collagen Type I (UniProt P02454).
Chain of Histidine (His)-tagged purified recombinant human cathepsin-L (R&D Systems, Cat# 952-CY) (chain, as listed by the source): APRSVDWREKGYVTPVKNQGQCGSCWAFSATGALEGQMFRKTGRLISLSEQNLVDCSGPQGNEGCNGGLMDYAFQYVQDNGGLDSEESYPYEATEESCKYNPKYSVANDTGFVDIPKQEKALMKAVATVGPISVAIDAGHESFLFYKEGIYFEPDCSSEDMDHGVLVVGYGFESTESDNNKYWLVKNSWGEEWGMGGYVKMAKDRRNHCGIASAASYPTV
Chain of cathepsin D (R&D systems, activated) (chain, as listed by the source): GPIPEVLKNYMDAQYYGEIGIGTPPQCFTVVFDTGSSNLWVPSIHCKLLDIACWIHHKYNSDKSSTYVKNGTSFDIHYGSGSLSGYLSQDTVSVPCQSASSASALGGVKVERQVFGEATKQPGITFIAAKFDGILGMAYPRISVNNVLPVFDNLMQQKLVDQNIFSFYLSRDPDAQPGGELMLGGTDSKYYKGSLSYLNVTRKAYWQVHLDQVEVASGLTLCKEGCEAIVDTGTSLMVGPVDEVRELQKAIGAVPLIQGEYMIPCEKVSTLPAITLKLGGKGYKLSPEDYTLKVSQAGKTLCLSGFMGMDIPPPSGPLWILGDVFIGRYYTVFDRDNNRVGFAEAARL
Take Bacterial collagenase (Sigma Chemicals): the “degradation of soluble rat tail collagen Type I (1 hour at 37° C., SDS-Page gels, Coomassie Blue staining)” value (shortened to “degradation”) was “bacterial collagenase degraded rat collagen at both pH 5.0 and pH 8.0”.

As for cathepsin D (R&D systems, activated), the “degradation” value was “Cathepsins B, D and S showed some slight degradation of rat collagen at the manufacture specified pH and no degradation of rat collagen at pH 8.0”.

Regarding “Histidine (His)-tagged purified recombinant human cathepsin-L (R&D Systems, Cat# 952-CY)”, the “degradation” value is recorded as “cathepsin-L was the only enzyme that was active at pH 5.0, but not at pH 8.0”.

Regarding cathepsin B (R&D systems, activated), the “degradation” value was “Cathepsins B, D and S showed some slight degradation of rat collagen at the manufacture specified pH and no degradation of rat collagen at pH 8.0”.

Values taken from US20100003237.
